# Measured values reported in IntAct's records for PubMed 20638386.
# B1: Tubulin-folding cofactor A (Arabidopsis thaliana (Mouse-ear cress)), O04350 (parent)
# chain: MATIRNLKIKTSTCKRIVKELHSYEKEVEREAAKTADMKDKGADPYDLKQQENVLGESRMMIPDCHKRLESALADLKSTLAELEETDEKEGPEIEDAKKTVADVEKQFPTEDA
# Variants of: B1
# Details: with tbb9_arath TUBB9, P29517
# tbb9_arath TUBB9, P29517, sequence (P29517 whole entry): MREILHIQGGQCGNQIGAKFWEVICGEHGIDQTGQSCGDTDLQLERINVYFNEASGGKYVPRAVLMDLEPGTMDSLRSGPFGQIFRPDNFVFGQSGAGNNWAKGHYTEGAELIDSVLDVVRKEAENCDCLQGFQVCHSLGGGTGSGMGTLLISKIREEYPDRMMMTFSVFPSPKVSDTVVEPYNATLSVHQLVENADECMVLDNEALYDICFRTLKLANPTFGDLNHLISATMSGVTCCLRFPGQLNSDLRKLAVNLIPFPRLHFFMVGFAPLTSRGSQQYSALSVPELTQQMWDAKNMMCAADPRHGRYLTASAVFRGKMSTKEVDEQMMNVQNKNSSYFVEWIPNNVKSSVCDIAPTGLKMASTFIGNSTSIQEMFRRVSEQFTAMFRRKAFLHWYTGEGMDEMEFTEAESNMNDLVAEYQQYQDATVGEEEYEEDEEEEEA
row,Variant,effect of a mutation on the interaction
1,MATIRNLKIKTSTCKRIVKALHSYEKEVEREAAKTADMKDKGADPYDLKQQENVLGESRMMIPDCHKRLESALADLKSTLAELEETDEKEGPEIEDAKKTVADVEKQFPTEDA,disrupting interaction

# Variants of: B1
# Details: with tbb9_arath TUBB9, P29517
# Remark: another data set of the same source
row,Variant,effect of a mutation on the interaction
1,MATIRNLKIKTSTCKRIVKELHSYEKEVEREAAKTADMKDKGADPYDLKQQENVLGASRMMIPDCHKRLESALADLKSTLAELEETDEKEGPEIEDAKKTVADVEKQFPTEDA,disrupting interaction

# Variants of: B1
# Details: with tbb9_arath TUBB9, P29517
# Remark: another data set of the same source
row,Variant,effect of a mutation on the interaction
1,MATIRNLKIKTSTCKRIVKELHSAEKEVEREAAKTADMKDKGADPYDLKQQENVLGESRMMIPDCHKRLESALADLKSTLAELEETDEKEGPEIEDAKKTVADVEKQFPTEDA,disrupting interaction
